Test results as given in IntAct's records for PubMed 31515488.

B1: Bcl-2-interacting killer (Homo sapiens), Q13323 (parent)
chain: MSEVRPLSRDILMETLLYEQLLEPPTMEVLGMTDSEEDLDPMEDFDSLECMEGSDALALRLACIGDEMDVSLRAPRLAQLSEVAMHSLGLAFIYDQTEDIRDVLRSFMDGFTTLKENIMRFWRSPNPGSWVSCEQVLLALLLLLALLLPLLSGGLHLLLK
B2: Break repair meiotic recombinase recruitment factor 1 (Homo sapiens), Q0VDD7 (parent)
chain: MTKRKKLRTSGEGLCPPKPLKNPRLGDFYGDPQSSMLGCLHHPEEPEGKLGPVPSTQQHGEEPGKAVSSSPDEETGSPCRLLRQPEKEPAPLPPSQNSFGRFVPQFAKSRKTVTRKEEMKDEDRGSGAFSLETIAESSAQSPGCQLLVETLGVPLQEATELGDPTQADSARPEQSSQSPVQAVPGSGDSQPDDPPDRGTGLSASQRASQDHLSEQGADDSKPETDRVPGDGGQKEHLPSIDSEGEKPDRGAPQEGGAQRTAGAGLPGGPQEEGDGVPCTPASAPTSGPAPGLGPASWCLEPGSVAQGSPDPQQTPSRMGREGEGTHSSLGCSSLGMVVIADLSTDPTELEERALEVAGPDGQASAISPASPRRKAADGGHRRALPGCTSLTGETTGESGEAGQDGKPPGDVLVGPTASLALAPGSGESMMGAGDSGHASPDTGPCVNQKQEPGPAQEEAELGGQNLERDLEGFRVSPQASVVLEHREIADDPLQEPGAQQGIPDTTSELAGQRDHLPHSADQGTWADSLAVELDFLLDSQIQDALDASDFEAPPEQLFPSGNKPGPCWPGPSSHANGDPVAVAKAQPRTFVGIQASEASRMEDATNVVRGLIVELSNLNRLIMGTHRDLEAFKRLNYRKTKLGGKAPLPYPSKGPGNIPRGDPPWREL
partner: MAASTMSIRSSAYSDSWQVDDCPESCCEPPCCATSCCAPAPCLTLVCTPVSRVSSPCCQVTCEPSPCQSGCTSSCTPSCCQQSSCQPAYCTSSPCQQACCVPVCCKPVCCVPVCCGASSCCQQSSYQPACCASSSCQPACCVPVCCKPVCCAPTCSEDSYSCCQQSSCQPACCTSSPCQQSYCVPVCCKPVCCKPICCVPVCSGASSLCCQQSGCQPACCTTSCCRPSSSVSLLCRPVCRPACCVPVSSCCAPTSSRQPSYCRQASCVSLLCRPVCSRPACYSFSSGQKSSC
B3: Hypoxia-inducible factor 1-alpha inhibitor (Homo sapiens), Q9NWT6 (parent)
chain: MAATAAEAVASGSGEPREEAGALGPAWDESQLRSYSFPTRPIPRLSQSDPRAEELIENEEPVVLTDTNLVYPALKWDLEYLQENIGNGDFSVYSASTHKFLYYDEKKMANFQNFKPRSNREEMKFHEFVEKLQDIQQRGGEERLYLQQTLNDTVGRKIVMDFLGFNWNWINKQQGKRGWGQLTSNLLLIGMEGNVTPAHYDEQQNFFAQIKGYKRCILFPPDQFECLYPYPVHHPCDRQSQVDFDNPDYERFPNFQNVVGYETVVGPGDVLYIPMYWWHHIESLLNGGITITVNFWYKGAPTPKRIEYPLKAHQKVAIMRNIEKMLGEALGNPQEVGPLLNTMIKGRYN
partner: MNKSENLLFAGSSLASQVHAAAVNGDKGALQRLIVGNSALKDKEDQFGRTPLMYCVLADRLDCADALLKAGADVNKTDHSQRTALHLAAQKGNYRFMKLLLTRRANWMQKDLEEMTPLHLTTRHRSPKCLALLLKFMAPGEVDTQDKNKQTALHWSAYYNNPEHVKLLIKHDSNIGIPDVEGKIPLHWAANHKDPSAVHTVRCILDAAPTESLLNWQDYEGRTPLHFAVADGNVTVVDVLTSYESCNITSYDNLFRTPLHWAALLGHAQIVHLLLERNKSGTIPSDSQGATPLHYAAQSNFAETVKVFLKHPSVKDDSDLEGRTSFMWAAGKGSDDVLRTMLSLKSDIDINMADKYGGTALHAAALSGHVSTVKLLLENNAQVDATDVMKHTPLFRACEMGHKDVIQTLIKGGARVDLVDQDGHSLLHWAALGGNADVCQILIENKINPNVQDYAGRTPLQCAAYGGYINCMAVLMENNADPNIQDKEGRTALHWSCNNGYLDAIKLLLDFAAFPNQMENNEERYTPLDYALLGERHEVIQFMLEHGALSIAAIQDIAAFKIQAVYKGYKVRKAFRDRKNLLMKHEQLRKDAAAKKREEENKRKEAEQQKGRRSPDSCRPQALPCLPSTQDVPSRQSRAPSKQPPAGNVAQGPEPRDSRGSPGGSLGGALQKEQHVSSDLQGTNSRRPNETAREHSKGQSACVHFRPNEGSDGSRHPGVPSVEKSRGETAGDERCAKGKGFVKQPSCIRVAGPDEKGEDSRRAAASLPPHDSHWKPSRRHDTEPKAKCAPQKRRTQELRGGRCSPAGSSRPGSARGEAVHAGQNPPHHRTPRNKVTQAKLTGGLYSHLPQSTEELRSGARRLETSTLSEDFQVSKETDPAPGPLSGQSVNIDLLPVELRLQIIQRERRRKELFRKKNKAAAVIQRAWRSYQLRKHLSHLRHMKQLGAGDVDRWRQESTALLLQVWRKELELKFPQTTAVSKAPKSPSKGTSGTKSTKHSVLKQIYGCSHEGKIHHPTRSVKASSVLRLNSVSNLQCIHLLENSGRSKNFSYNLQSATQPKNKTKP
B4: KH domain-containing, RNA-binding, signal transduction-associated protein 2 (Homo sapiens), Q5VWX1 (parent)
chain: MEEEKYLPELMAEKDSLDPSFVHASRLLAEEIEKFQGSDGKKEDEEKKYLDVISNKNIKLSERVLIPVKQYPKFNFVGKLLGPRGNSLKRLQEETGAKMSILGKGSMRDKAKEEELRKSGEAKYAHLSDELHVLIEVFAPPGEAYSRMSHALEEIKKFLVPDYNDEIRQEQLRELSYLNGSEDSGRGRGIRGRGIRIAPTAPSRGRGGAIPPPPPPGRGVLTPRGSTVTRGALPVPPVARGVPTPRARGAPTVPGYRAPPPPAHEAYEEYGYDDGYGGEYDDQTYETYDNSYATQTQSVPEYYDYGHGVSEDAYDSYAPEEWATTRSSLKAPPQRSARGGYREHPYGRY
partner: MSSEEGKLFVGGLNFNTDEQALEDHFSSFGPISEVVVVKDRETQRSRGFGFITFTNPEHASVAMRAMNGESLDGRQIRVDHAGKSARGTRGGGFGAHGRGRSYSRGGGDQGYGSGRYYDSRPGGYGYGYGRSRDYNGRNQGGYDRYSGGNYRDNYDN

Variants of: B1
Details: with BCL2L1, Q07817
Sequence of BCL2L1, Q07817 (Q07817 whole entry): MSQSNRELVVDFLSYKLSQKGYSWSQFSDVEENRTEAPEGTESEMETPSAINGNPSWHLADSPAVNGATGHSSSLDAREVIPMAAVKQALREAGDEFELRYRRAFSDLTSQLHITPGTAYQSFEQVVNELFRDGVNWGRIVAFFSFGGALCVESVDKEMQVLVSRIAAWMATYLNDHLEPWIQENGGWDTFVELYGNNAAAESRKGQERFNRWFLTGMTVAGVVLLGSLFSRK

Variant	effect of a mutation on the interaction
D69E	with no effect

Variants of: B2
Details: with kr109_human KRTAP10-9, P60411

Variant	effect of a mutation on the interaction
Q500R	with no effect
G267R	with no effect
L155F	with no effect

Variants of: B3
Details: with invs_human INVS

Variant	effect of a mutation on the interaction
P41A	with no effect

Variants of: B4
Details: with rbm3_human RBM3, P98179

Variant	effect of a mutation on the interaction
P333L	with no effect
